# Reference: US20260242735A1 (UNIVERSIT T BASEL, published 2026)
# B1: Refmab #4 (antibody, human IgG1, V domains shown)
# VH: QVQLVQSGAEVKKPGESVKVSCKASGYTFTNYGMNWVKQAPGQGLEWMGWINTYTGEPTYADKFQGRVTMTTDTSTSTAYMEIRNLGGDDTAVYYCARWSWSDGYYVYFDYWGQGTSVTVSS
# VL: DIVMTQSPDSLTVSLGERTTINCKSSQSVLDSSTNKNSLAWYQQKPGQPPKLLLSWASTRESGIPDRFSGSGSGTDFTLTIDSPQPEDSATYYCQQSAHFPITFGQGTRLEIK
# B2: Refmab #3 (antibody, human IgG1, V domains shown)
# VH: QVQLVQSGAEVKKPGSSVKVSCKASGYTFTDYNMHWVRQAPGQGLEWIGYIYPYNGGTGYNQKFKSKATITADESTNTAYMELSSLRSEDTAVYYCARGRPAMDYWGQGTLVTVSS
# VL: DIQMTQSPSSLSASVGDRVTITCRASESVDNYGISFMNWFQQKPGKAPKLLIYAASNQGSGVPSRFSGSGSGTDFTLTISSLQPDDFATYYCQQSKEVPWTFGQGTKVEIK
# Tests used:
# Assay in all cases: BLI Octet, IgG captured on AHC, CD33 analyte;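 note: CD33 variants and wild type run as analyte at 5, 50 and 500 nM, 700 s association then 1200 s dissociation, buffer-only reference subtracted, global 1:1 fit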
# [1] = molecular target: human CD33 extracellular region N20S (human, UniProt P20138 21-259)
# Sequence of human CD33 extracellular region N20S (P20138 other isoform, or with tags, fused parts or gaps N20S N20S): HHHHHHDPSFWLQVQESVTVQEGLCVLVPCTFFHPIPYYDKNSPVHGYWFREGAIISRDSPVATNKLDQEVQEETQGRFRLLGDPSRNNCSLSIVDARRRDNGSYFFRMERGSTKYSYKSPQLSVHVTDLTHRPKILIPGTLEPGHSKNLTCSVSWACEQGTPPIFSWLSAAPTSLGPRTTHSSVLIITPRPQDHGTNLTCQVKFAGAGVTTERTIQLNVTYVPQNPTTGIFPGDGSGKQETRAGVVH
# Procedure: (§1) Human CD33 wt and variants, were used as analyte at 3 different concentrations (500, 50 and 5 nM). Association of the analyte to the antibodies was monitored for 700 s and dissociation of the analyte from the antibodies was monitored for 1200 s. Reference subtraction was performed against buffer only wells. AHC tips were regenerated using 10 mM Glycine-HCl pH 1.7. Data were analyzed with Octet Data Analysis software HT 12.0. Data were fitted to a 1:1 binding model. Kinetic rates ka and kd and response signal were globally fitted.
# [2] = molecular target: human CD33 extracellular region N20V (human, UniProt P20138 21-259)
# Sequence of human CD33 extracellular region N20V (P20138 other isoform, or with tags, fused parts or gaps N20V N20V): as the sequence (P20138 other isoform, or with tags, fused parts or gaps N20S N20S) above, with S9V counted along it
# Procedure: as §1
# [3] = molecular target: human CD33 extracellular region F21V (human, UniProt P20138 22-259)
# Sequence of human CD33 extracellular region F21V (P20138 other isoform, or with tags, fused parts or gaps F21V F21V): as the sequence (P20138 other isoform, or with tags, fused parts or gaps N20S N20S) above, with S9N, F10V counted along it
# Procedure: as §1
# [4] = molecular target: human CD33 extracellular region F21Q (human, UniProt P20138 22-259)
# Sequence of human CD33 extracellular region F21Q (P20138 other isoform, or with tags, fused parts or gaps F21Q F21Q): as the sequence (P20138 other isoform, or with tags, fused parts or gaps N20S N20S) above, with S9N, F10Q counted along it
# Procedure: as §1
# [5] = molecular target: human CD33 extracellular region W22H (human, UniProt P20138 18-259)
# Sequence of human CD33 extracellular region W22H (P20138 other isoform, or with tags, fused parts or gaps W22H W22H): as the sequence (P20138 other isoform, or with tags, fused parts or gaps N20S N20S) above, with S9N, W11H counted along it
# Procedure: as §1
# [6] = molecular target: human CD33 extracellular region Y50S (human, UniProt P20138 18-259)
# Sequence of human CD33 extracellular region Y50S (P20138 other isoform, or with tags, fused parts or gaps Y50S Y50S): as the sequence (P20138 other isoform, or with tags, fused parts or gaps N20S N20S) above, with S9N, Y39S counted along it
# Procedure: as §1
# [7] = molecular target: human CD33 extracellular region R119A (human, UniProt P20138 18-259)
# Sequence of human CD33 extracellular region R119A (P20138 other isoform, or with tags, fused parts or gaps R119A R119A): as the sequence (P20138 other isoform, or with tags, fused parts or gaps N20S N20S) above, with S9N, R108A counted along it
# Procedure: as §1
Binder,% WT binding [1],% WT binding [2],% WT binding [3],% WT binding [4],% WT binding [5],% WT binding [6],% WT binding [7]
B1,84.1%,96.5%,101%,89%,112%,22.6%,95%
B2,34.4%,6.34%,0%,0%,55%,70.9%,118%
